test: soluble on expression in E. coli; label from the status in PepcDB or PDB records

**Q.** Which “soluble on expression in E. coli” value does the source give for “SKAAIYHAFSHKEAKDHDVQELGSQRAEAFVRAFLKQSIPHMSQEDCESHLQRKAVILEYFTRLKPRPRPKKKSKGLSAKQRRDMRLFDIKPEQQRYSLFLPLHELWKQYIRDLCNGLKPDTQPQMIQAKLLKADLHGAIISVTKSKCPSYVGVTGILLQETKHVFKIITREDHLKVIPKLNCVFTIEIDDFISYIYGSKFQLRASERSAKKFKAKGSIDL” here?
**A.** soluble

**Q.** With “MGIIDKIKAIEEEMARTQKNKATEHHLGLLKGKLARYRQQLLADEAGSGGGGGSGFEVAKSGDARVVLIGYPSVGKSSLLGKITTTKSEIAHYAFTTLTSVPGVLKYQGAEIQIVDLPGIIYGASQGKGRGRQVVATARTADLVLMVLDATKSEHQRASLEKELENVGIRLNKEKPNIYYKKKETGGVKVTFTSPPKTNLTEQAIKMILRDYRIHNAEVLVRDDQCTIDDFIDVINEQHRNYVKCLYVYNKIDAVSLEEVDKLAREPNTVVMSCEMDLGLQDVVEEIWYQLNLSRVYTKKRGVRPVFDDPLVVRNNSTIGDLCHGIHRDFKDKFKYALVWGSSAKHSPQKCGLNHRIDDEDVVSLFAK” as the sequence, how does the “soluble on expression in E. coli” value read?
**A.** soluble

**Q.** Which “soluble on expression in E. coli” value does the source give for “MFQLPILNFSPQQVAGVCETLEESGDVERLGRFLWSLPVAPAACEALNKNESVLRARAIVAFHGGNYRELYHILENHKFTKESHAKLQALWLEAHYQEAEKLRGRPLGPVDKYRVRKKFPLPRTIWDGEQKTHCFKERTRHLLREWYLQDPYPNPSKKRELAQATGLTPTQVGNWFKNRRQRDRAAAAKNRLQQQVLSQGPGRVLRSEGEGTPEVLGVASSPAASLSSKAATSAISITSSDSECDI” here?
**A.** soluble

**Q.** For “MSQKQEEENPAEETGEEKQDTQEKEGILPERAEEAKLKAKYPSLGQKPGGSDFLMKRLQKGQKYFDSGDYNMAKAKMKNKQLPSAGPDKNLVTGDHIPTPQDLPQRKSSLVTSKLAGGQVE”, which “soluble on expression in E. coli” value is on record?
**A.** soluble

**Q.** For “MDRLIRSLLMNQNKQATDKLDHPDTSETVNISSLALLKMLRHARSGIPLEVMGLMLGDFVDDYTINVTDVFAMPQSGTSVTVESVDPVYQTKHMDLLKLVGRTENVVGWYHSHPGFGCWLSSVDVNTQQSFEALHPRAVAVVVDPIQSVKGKVMLDAFRSVNPLNLQIRPLAPTAEPRQTTSNLGHLTKPSLISVVHGLGTKYYSLNVAYRMGSNEQKMLMCLNKKSWYDQLNMSTYSELEKKQEEKFKSINKLIAVFNKDIDEVKEKPIADKKGKTQEEVKKFGKINAKQQLQMITSSLLNDSLCHQLTAMINAKSMT”, which “soluble on expression in E. coli” value is on record?
**A.** not soluble

**Q.** With “MSEFKSKLESETLDFLCDAILTLENREECYRFFDDIFTINEIKTIEQRLQVAKMLKEKHTYSDISAETGASTATISRVNRCINYGSDGYNIVLRRLEK” as the sequence, how does the “soluble on expression in E. coli” value read?
**A.** not soluble

**Q.** For “GPGSMTDYIRDGQAIYDRSFAIIRAEADLRHIPADLEKLAVRVIHACGMVDVANDLAFSEGAGKAGRNALLAGAPILCDARMVAEGITRSRLPADNRVIYTLSDPSVPELAKKIGNTRSAAALDLWLPHIEGSIVAIGNAPTALFRLFELLDAGAPKPALIIGMPVGFVGAAESKDELAANSRGVPYVIVRGRRGGSAMTAAAVNALASERE”, which “soluble on expression in E. coli” value is on record?
**A.** soluble

**Q.** Which “soluble on expression in E. coli” value does the source give for “MSLDENLIEEIKLADDISKGYNAALNYLSYQLRTRKEVEDKLRSLDIHEDYISEIINKLIDLDLINDKNYAESYVRTMMNTSDKGPKVIKLNLSKKGIDDNIAEDALILYTDKLQVEKGVTLAEKLANRYSHDSYRNKQNKIKQSLLTKGFSYDIIDTIIQELDLIFDDDTEREILLEKANKLWSRYDNLDIKKRKFKIQQALFKQGFSFSNITSALDEIEDTNEGHHHHHH” here?
**A.** soluble

**Q.** With “MTNSIHEMIRASFKCEDMVKCVLGLKSLDIEAYKALLMHGPQTAEKLGEILNRERSTAYRSLQNLIACGIVYRETRSIESGGYYYEYVAIEPQEMKRMVKKNVDEWYNQMNELIEKMDDKVNALVTRLEDDEAKQK” as the sequence, how does the “soluble on expression in E. coli” value read?
**A.** not soluble

**Q.** With “ARKIGIIGLGNVGAAVAHGLIAQGVADDYVFIDANEAKVKADQIDFQDAMANLEAHGNIVINDWAALADADVVISTLGNIKLQQDNPTGDRFAELKFTSSMVQSVGTNLKESGFHGVLVVISNPVDVITALFQHVTGFPAHKVIGTGTLLDTARMQRAVGEAFDLDPRSVSGYNLGEHGNSQFVAWSTVRVMGQPIVTLADAGDIDLAAIEEEARKGGFTVLNGKGYTSYGVATSAIRIAKAVMADAHAELVVSNRRDDMGMYLSYPAIIGRDGVLAETTLDLTTDEQEKLLQSRDYIQQRFDEIVDTL” as the sequence, how does the “soluble on expression in E. coli” value read?
**A.** soluble

**Q.** Which “soluble on expression in E. coli” value does the source give for “MGSDKIHHHHHHMASPTVRRRQLSAILREMRKASGLSLDAVAARLEWSRAKVGHIETGQRKKPSVLEVKALMAEYGVTPEDPRYETVLMLTRQAQARGWWRRYDDLFPGSYIELEAEASEIRTYEAFVVPGLLQTPGYTRLLQQARLDRDPDDVERAVESRRKRQEIFDRTSPPAVYAIIEEHALERLRGTPDVLAEQVAHLLHMAGRNSVTLQVLRTRVGVHAGAMGPFVILDFPEPASPVVYLETYTDGLFLERREEIDQYRSLWDRIRDAALPPDRTVEFLRSLLTL” here?
**A.** not soluble

**Q.** For “MKLTPKELDKLMLHYAGELAKKRKEKGIKLNYVEAVALISAHIMEEARAGKKTAAELMQEGRTLLKPDDVMDGVASMIHEVGIEAMFPDGTKLVTVHTPIEANGKLVPGELFLKNEDITINEGKKAVSVKVKNVGDRPVQIGSHFHFFEVNRCLDFDREKTFGKRLDIAAGTAVRFEPGEEKSVELIDIGGNRRIFGFNALVDRQADNESKKIALHRAKERGFHGAKSDDNYVKTIKE”, which “soluble on expression in E. coli” value is on record?
**A.** soluble

**Q.** Which “soluble on expression in E. coli” value does the source give for “MGSSHHHHHHSSGLVPRGSHMTPKDDEFYQQWQLKYPKLILREASSVSEELHKEVQEAFLTLHKHGCLFRDLVRIQGKDLLTPVSRILIGNPGCTYKYLNTRLFTVPWPVKGSNIKHTEAEIAAACETFLKLNDYLQIETIQALEELAAKEKANEDAVPLCMSADFPRVGMGSSYNGQDEVDIKSRAAYNVTLLNFMDPQKMPYLKEEPYFGMGKMAVSWHHDENLVDRSAVAVYSYSCEGPEEESEDDSHLEGRDPDIWHVGFKISWDIETPGLAIPLHQGDCYFMLDDLNATHQHCVLAGSQPRFSSTHRVAECSTGTLDYILQRCQLALQNVCDDVDNDDVSLKSFEPAVLKQGEEIHNEVEFEWLRQFWFQGNRYRKCTDWWCQPMAQLEALWKKMEGVTNAVLHEVKREGLPVEQRNEILTAILASLTARQNLRREWHARCQSRIARTLPADQKPECRPYWEKDDASMPLPFDLTDIVSELRGQLLEAKP” here?
**A.** soluble

**Q.** Which “soluble on expression in E. coli” value does the source give for “SNAMTEEHVVLLDEQDKPSGTLEKYAAHTLNTPLHLAFSCWLFNEDGQLLVTRRSLSKKAWPGVWTNSVCGHPQQGETTEEAIIRRCRFELGVEITDLTPVYPHFSYRATDPNGIVENEVCPVFAARATSVLQVNSEEVMDYQWSEFKSVWKSLLATPWAFSPWMVMQASDEQARERLLNYCQR” here?
**A.** soluble

**Q.** For “ADNEEDVEAEEEYTELTDISGVGPSKAESLREAGFESVEDVRGADQSALADVSGIGNALAARIKADVGGLEVESETEAEVEEEGGEEAPDEDVETELQARGLTEKTPDLSDEDARLLTQRHRVGKPQFNRQDHHKKKRVSTSWRKPRGQLSKQRRGIKGKGDTVEAGFRSPTAVRGKHPSGFEEVRVHNVDDLEGVDGDTEAVRIASKVGARKRERIEEEAEDAGIRVLNPTYVEVEVSE”, which “soluble on expression in E. coli” value is on record?
**A.** soluble

**Q.** For “MGSDKIHHHHHHMLRGINRQIIFEDDEDYQNFMGTIKETQEKSGYEVYAYCLMSNHVHLLLKEVTEDLGIAFRRIGAIYVYWYNWKYSRRGHLFQARYKSEAVETDSYFLTVLRYIHQNPYKAGIVKNIADYPWSSYGEYVGEPRICDVEFGLNMFSTNRTNAVKLFEEFNLAENQDQCLDYNQDVRLNDTEASNFIRSISDVQSPTEIQGFEKDKRNEVIKKCKSKGLSIRQIERLTGVSFGVIRTI”, which “soluble on expression in E. coli” value is on record?
**A.** not soluble
